Measured values as given in PMC10397247.
Where two headings read alike, the source gives them in different places.

Experiments:
Experiment in all cases: two-hybrid library CCmax;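 also: natural log of median RNA to DNA barcode read ratio; higher means stronger binding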
4H3410-AA = target: T1, 4H3410-AA
T1 chain: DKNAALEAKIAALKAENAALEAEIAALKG

4H3590-AA = target: T2, 4H3590-AA; settings: mean of both orientations
T2 chain: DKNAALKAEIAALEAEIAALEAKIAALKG

4H3697-AA = target: T3, 4H3697-AA
T3 chain: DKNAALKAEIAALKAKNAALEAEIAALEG

4H3753-AA = target: T4, 4H3753-AA
T4 chain: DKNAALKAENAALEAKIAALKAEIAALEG

4H3865-AA = target: T5, 4H3865-AA; settings: mean of both orientations
T5 chain: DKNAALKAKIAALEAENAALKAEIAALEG

4H458-AA = target: T6, 4H458-AA; settings: mean of both orientations
T6 chain: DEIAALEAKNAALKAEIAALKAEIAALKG

4H485-AA = target: T7, 4H485-AA; settings: mean of both orientations
T7 chain: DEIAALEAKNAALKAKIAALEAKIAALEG

4H536-AA = target: T8, 4H536-AA; settings: mean of both orientations
T8 chain: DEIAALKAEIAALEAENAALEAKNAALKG

4H570-AA = target: T9, 4H570-AA; settings: mean of both orientations
T9 chain: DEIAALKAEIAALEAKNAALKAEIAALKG

4H629-AA = target: T10, 4H629-AA; settings: mean of both orientations
T10 chain: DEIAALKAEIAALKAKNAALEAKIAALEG

4H710-AA = target: T11, 4H710-AA; settings: mean of both orientations
T11 chain: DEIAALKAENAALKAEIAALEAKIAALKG

4H745-AA = target: T12, 4H745-AA; settings: mean of both orientations
T12 chain: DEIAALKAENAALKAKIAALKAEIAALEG

4H797-AA = target: T13, 4H797-AA; settings: mean of both orientations
T13 chain: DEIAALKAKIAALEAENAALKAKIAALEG

4H850-AA = target: T14, 4H850-AA; settings: mean of both orientations
T14 chain: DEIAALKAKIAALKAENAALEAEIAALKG

4H891-AA = target: T15, 4H891-AA; settings: mean of both orientations
T15 chain: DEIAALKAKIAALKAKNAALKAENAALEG

4H909-AA = target: T16, 4H909-AA; settings: mean of both orientations
T16 chain: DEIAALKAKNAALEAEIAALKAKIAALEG

4H930-AA = target: T17, 4H930-AA; settings: mean of both orientations
T17 chain: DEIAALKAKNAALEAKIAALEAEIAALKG

4H94-AA = target: T18, 4H94-AA; settings: mean of both orientations
T18 chain: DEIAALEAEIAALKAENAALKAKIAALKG

4H3921-AA = target: T19, 4H3921-AA
T19 chain: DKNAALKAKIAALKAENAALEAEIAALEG

4H429-AA = target: T20, 4H429-AA; settings: mean of both orientations
T20 chain: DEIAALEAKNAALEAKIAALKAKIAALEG

4H454-AA = target: T21, 4H454-AA; settings: mean of both orientations
T21 chain: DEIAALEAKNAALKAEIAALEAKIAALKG

4H566-AA = target: T22, 4H566-AA; settings: mean of both orientations
T22 chain: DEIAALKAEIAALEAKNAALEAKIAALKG

4H605-AA = target: T23, 4H605-AA; settings: mean of both orientations
T23 chain: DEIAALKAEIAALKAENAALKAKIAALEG

4H678-AA = target: T24, 4H678-AA; settings: mean of both orientations
T24 chain: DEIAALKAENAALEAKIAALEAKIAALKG

4H717-AA = target: T25, 4H717-AA; settings: mean of both orientations
T25 chain: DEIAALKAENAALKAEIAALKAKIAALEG

4H780-AA = target: T26, 4H780-AA; settings: mean of both orientations
T26 chain: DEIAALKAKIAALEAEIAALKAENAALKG

4H794-AA = target: T27, 4H794-AA; settings: mean of both orientations
T27 chain: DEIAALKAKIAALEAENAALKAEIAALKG

4H881-AA = target: T28, 4H881-AA; settings: mean of both orientations
T28 chain: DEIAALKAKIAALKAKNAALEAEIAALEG

4H906-AA = target: T29, 4H906-AA; settings: mean of both orientations
T29 chain: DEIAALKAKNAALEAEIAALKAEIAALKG

4H993-AA = target: T30, 4H993-AA; settings: mean of both orientations
T30 chain: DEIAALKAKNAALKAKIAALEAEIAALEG

4H342-AA = target: T31, 4H342-AA
T31 chain: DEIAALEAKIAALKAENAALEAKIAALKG

4H3427-AA = target: T32, 4H3427-AA; settings: mean of both orientations
T32 chain: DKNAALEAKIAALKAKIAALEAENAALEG

4H3606-AA = target: T33, 4H3606-AA; settings: mean of both orientations
T33 chain: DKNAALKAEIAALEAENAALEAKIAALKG

4H3627-AA = target: T34, 4H3627-AA; settings: mean of both orientations
T34 chain: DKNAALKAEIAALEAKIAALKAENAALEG

4H3655-AA = target: T35, 4H3655-AA
T35 chain: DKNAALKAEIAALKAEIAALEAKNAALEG

4H3844-AA = target: T36, 4H3844-AA; settings: mean of both orientations
T36 chain: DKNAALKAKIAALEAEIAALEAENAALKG

4H48-AA = target: T37, 4H48-AA; settings: mean of both orientations
T37 chain: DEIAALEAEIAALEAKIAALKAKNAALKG

4H497-AA = target: T38, 4H497-AA
T38 chain: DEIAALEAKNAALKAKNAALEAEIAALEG

4H656-AA = target: T39, 4H656-AA; settings: mean of both orientations
T39 chain: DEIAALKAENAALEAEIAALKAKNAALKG

4H675-AA = target: T40, 4H675-AA
T40 chain: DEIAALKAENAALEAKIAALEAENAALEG

4H971-AA = target: T41, 4H971-AA; settings: mean of both orientations
T41 chain: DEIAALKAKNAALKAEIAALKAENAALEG

4H3718-AA = target: T42, 4H3718-AA; settings: mean of both orientations
T42 chain: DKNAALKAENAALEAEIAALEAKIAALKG

4H384-AA = target: T43, 4H384-AA; settings: mean of both orientations
T43 chain: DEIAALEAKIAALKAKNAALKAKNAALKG

4H697-AA = target: T44, 4H697-AA; settings: mean of both orientations
T44 chain: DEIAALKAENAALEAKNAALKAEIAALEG

4H982-AA = target: T45, 4H982-AA; settings: mean of both orientations
T45 chain: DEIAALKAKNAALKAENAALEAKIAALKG

Row | Binder | interaction score (4H3865-AA) | interaction score (4H458-AA) | interaction score (4H485-AA) | interaction score (4H536-AA) | interaction score (4H570-AA) | interaction score (4H629-AA) | interaction score (4H710-AA) | interaction score (4H745-AA) | interaction score (4H797-AA) | interaction score (4H850-AA) | interaction score (4H891-AA) | interaction score (4H909-AA) | interaction score (4H930-AA) | interaction score (4H94-AA) | interaction score (4H429-AA) | interaction score (4H454-AA) | interaction score (4H566-AA) | interaction score (4H605-AA) | interaction score (4H678-AA) | interaction score (4H717-AA) | further results
1 | DKNAALEAKIAALKAENAALEAEIAALKG [4H3410-AA] | 0.873 | 1.79 | -0.0439 | -1.39 | 2.09 | -1.53 | -1.13 | -0.581 | -1.22 | -0.83 | -1.42 | -1.45 | -1.36 | 1.3 | – | – | – | – | – | – | interaction score (4H3410-AA): 0.0832; interaction score (4H3590-AA): -0.698; interaction score (4H3697-AA; mean of both orientations): -0.574; interaction score (4H3753-AA; mean of both orientations): -1.39
2 | DKNAALKAKIAALKAENAALEAEIAALEG [4H3921-AA] | – | – | – | – | – | – | – | – | – | – | – | – | – | – | -0.196 | 0.521 | 0.811 | -0.532 | -1.4 | -1.37 | interaction score (4H3921-AA): -1.67; interaction score (4H780-AA): -1.71; interaction score (4H794-AA): -0.924; interaction score (4H881-AA): -0.834; interaction score (4H906-AA): -1.62; interaction score (4H993-AA): 0.874
3 | DEIAALEAKIAALKAENAALEAKIAALKG [4H342-AA] | – | – | – | – | – | – | – | – | – | – | – | – | – | – | -0.49 | 2.21 | 2.31 | 1.41 | 0.227 | -1.4 | interaction score (4H342-AA): 1.54; interaction score (4H3427-AA): -1.15; interaction score (4H3606-AA): 1.55; interaction score (4H3627-AA): 0.447; interaction score (4H3655-AA; mean of both orientations): -0.61; interaction score (4H3844-AA): 0.569; interaction score (4H3921-AA; mean of both orientations): 0.975; interaction score (4H48-AA): -0.491; interaction score (4H780-AA): -1.58; interaction score (4H794-AA): 1.25; interaction score (4H881-AA): 2.49; interaction score (4H906-AA): -1.52; interaction score (4H993-AA): 1.17
4 | DKNAALKAEIAALKAEIAALEAKNAALEG [4H3655-AA] | – | – | – | – | – | – | – | – | – | – | – | – | – | – | -1.13 | -0.827 | -1.03 | -1.25 | -0.956 | -1.27 | interaction score (4H3655-AA): 0.24; interaction score (4H3844-AA): -1.26; interaction score (4H3921-AA; mean of both orientations): -1.55; interaction score (4H48-AA): 0.736; interaction score (4H780-AA): -1.83; interaction score (4H794-AA): -1.61; interaction score (4H881-AA): -0.202; interaction score (4H906-AA): -1.03; interaction score (4H993-AA): -1.32
5 | DKNAALKAENAALEAKIAALKAEIAALEG [4H3753-AA] | -1.43 | 1.56 | 1.4 | -1.2 | -1 | -1.7 | 2.05 | -0.67 | -1.42 | -2 | -1.97 | -0.932 | -1.43 | -1.45 | – | – | – | – | – | – | interaction score (4H3753-AA): -0.536
6 | DEIAALEAKNAALKAKNAALEAEIAALEG [4H497-AA] | – | – | – | – | – | – | – | – | – | – | – | – | – | – | – | – | – | – | – | – | interaction score (4H497-AA): -1.57; interaction score (4H656-AA): -1.34; interaction score (4H675-AA): -0.54; interaction score (4H971-AA): -2.19
7 | DKNAALKAEIAALKAKNAALEAEIAALEG [4H3697-AA] | -1.52 | -1.36 | -0.973 | 0.0406 | 0.23 | -0.654 | -1.75 | -1.64 | -1.44 | -0.0774 | -1.55 | -1.21 | -1.4 | 1.01 | – | – | – | – | – | – | interaction score (4H3697-AA): -0.761; interaction score (4H3718-AA): -0.817; interaction score (4H3753-AA; mean of both orientations): -1.79; interaction score (4H384-AA): -0.953; interaction score (4H697-AA): -1.53; interaction score (4H982-AA): -1.01
